Test results published in paper PMC11163200, “C3d-Targeted factor H inhibits tissue complement in disease models and reduces glomerular injury without affecting circulating complement” (Molecular Therapy, 2024).

How the values were obtained:
Settings in all cases: both partners purified
[1] = target: T1, recombinant C3d ( (human, cynomolgus monkey or …, UniProt P01024 1002-1303)); assay: SPR; Biacore 3000 or T200, 25°C; recombinant C3d amine-coupled on a CM5 chip at medium-high density (2,500 RU); CR2-fH1–5 injected at 0–1,000 nM, 30 μL/min; Langmuir 1:1 fit
T1 construct: C3d fragment of complement C3, recombinant, amine-coupled to the CM5 chip; source: recombinant
T1 sequence (P01024 1002-1303): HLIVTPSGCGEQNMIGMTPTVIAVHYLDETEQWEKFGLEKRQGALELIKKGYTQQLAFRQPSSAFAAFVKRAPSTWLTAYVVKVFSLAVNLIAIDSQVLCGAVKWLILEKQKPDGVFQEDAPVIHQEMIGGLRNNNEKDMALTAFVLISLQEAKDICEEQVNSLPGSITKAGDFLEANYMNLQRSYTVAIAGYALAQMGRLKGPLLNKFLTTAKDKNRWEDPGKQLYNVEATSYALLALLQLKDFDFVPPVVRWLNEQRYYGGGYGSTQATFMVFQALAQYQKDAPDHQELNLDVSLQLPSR

[2] = target: T1, recombinant C3d; assay: SPR; Biacore 3000 or T200, 25°C; recombinant C3d amine-coupled on a CM5 chip at high density (4,200 RU); CR2-fH1–5 injected at 0–1,000 nM, 30 μL/min; Langmuir 1:1 fit
[3] = target: T1, recombinant C3d; assay: SPR; Biacore 3000 or T200, 25°C; recombinant C3d amine-coupled on a CM5 chip at medium density (750 RU); CR2-fH1–5 injected at 0–1,000 nM, 30 μL/min; Langmuir 1:1 fit
[4] = target: T1, recombinant C3d; assay: SPR; Biacore 3000 or T200, 25°C; recombinant C3d amine-coupled on a CM5 chip at low density (10 RU); CR2-fH1–5 injected at 0–1,000 nM, 30 μL/min, 120 s association, 180 s dissociation; Langmuir 1:1 fit

Kd [1]: 1.89 µM
Kd [2]: 1.89 µM
Kd [3]: 1.26 µM
Kd [4]: 1.08 µM
B1: TT30 (other)
chain: ISCGSPPPILNGRISYYSTPIAVGTVIRYSCSGTFRLIGEKSLLCITKDKVDGTWDKPAPKCEYFNKYSSCPEPIVPGGYKIRGSTPYRHGDSVTFACKTNFSMNGNKSVWCQANNMWGPTRLPTCVSVFPLECPALPMIHNGHHTSENVGSIAPGLSVTYSCESGYLLVGEKIINCLSSGKWSAVPPTCEEARCKSLGRFPNGKVKEPPILRVGVTANFFCDEGYRLQGPPSSRCVIAGQGVAWTKMPVCEEEDCNELPPRRNTEILTGSWSDQTYPEGTQAIYKCRPGYRSLGNVIMVCRKGEWVALNPLRKCQKRPCGHPGDTPFGTFTLTGGNVFEYGVKAVYTCNEGYQLLGEINYRECDTDGWTNDIPICEVVKCLPVTAPENGKIVSSAMEPDREYHFGQAVRFVCNSGYKIEGDEEMHCSDDGFWSKEKPKCVEISCKSPDVINGSPISQKIIYKENERFQYKCNMGYEYSERGDAVCTESGWRPLPSCEEKSCDNPYIPNGDYSPLRIKHRTGDEITYQCRNGFYPATRGNTAKCTSTGWIPAPRCTL
modifications: Limits are not printed. TT30 is taken as CR2 SCR1-4 (the C3d-binding end) fused directly to factor H SCR1-5, from general knowledge of TT30, with limits from the UniProt Sushi domain features. …
